From US20120165265A1, “Calcium Signaling Modulators Involving STIM and ORAI Proteins” (priority 2009, published 2012)
Each block holds one substance with its values, some of them ahead of it.

Legend:
[1] = molecular target: T1, Orai1 (Homo sapiens, UniProt Q96D31); assay: Puncta formation of STIM1 variants by confocal microscopy in HEK 293 cells; type: cell-based; parameters: expressed in transfected cells; host or cells: HEK 293; details: coexpressed with eGFP-Orai1, TG
Experimental: (§1) Confocal Microscopy. 6 h after transfection, HEK 293 cells were plated onto sterilized coverslips coated with poly-D-lysine and maintained in complete DMEM for an additional 12-18 h before imaging in Ringer's solution containing (in mM): 155 NaCl, 4.5 KCl, 2 CaCl2, 1 MgCl2, 10 D-glucose, and 5 Na-Hepes, pH 7.4. To deplete stores, cells were treated with 1 μM TG in Ca2+-free Ringer's (prepared by substituting 2 mM MgCl2 and 1 mM EGTA for CaCl2) for 10 min. eGFP and mCherry were excited simultaneously at 488 and 594 nm, respectively, on a Leica SP2 AOBS inverted confocal microscope equipped with a PL APO 100×/NA 1.4 oil immersion objective. Fluorescence emissions were collected at 615-840 nm (mCherry) and 510-570 nm (eGFP). All experiments were performed at 22-25° C.
Quantitation of STIM1 and Orai1 Recruitment into Puncta. Colocalization of eGFP-Orai1 and mCh-STIM1 variants was analyzed from background-corrected confocal image pairs acquired before and after store depletion. Puncta have two defining characteristics: (1) because they are sites of accumulation, STIM1 and Orai1 fluorescence intensities in puncta are greater than the respective mean intensities measured across the entire cell, and (2) because STIM1 and Orai1 co-localize in puncta, their fluorescence covariance is high. For each STIM1/Orai1 image pair, we computed the covariance of each pixel as (Si−s) (Oi−o), where Si and Oi are the STIM1 and Orai1 fluorescence of pixel i, and s and o are the mean STIM1 and Orai1 fluorescence of the entire cell. A threshold criterion for puncta was set using the pre-depletion image pair. The mean and s.d. of the covariance values were calculated from pixels for which both Si>s and Oi>o, and a covariance threshold was set equal to the mean+2×s.d. of this pre-depletion condition. Binary masks were applied to the pre- and post-depletion image pairs to isolate pixels for which Si>s and Oi>o and whose covariance exceeds the pre-depletion threshold. […] Integrated STIM1 or Orai1 puncta intensity was calculated from the masked images and expressed as a fraction of the total fluorescence intensity in the unmasked image. […]
The Role of CAD in Orai1 Binding and Activation by STIM1. […] To address this, we measured the ability of mCherry-tagged STIM1 variants containing CAD mutations to co-cluster with eGFP-Orai1 and activate Ca^2+ entry in response to TG (FIG. 7). STIM1-Orai1 colocalization was quantified as the fraction of total STIM1 and Orai1 fluorescence that was recruited to regions of high fluorescence covariance (FIG. 13), while Ca^2+ influx was measured with single cell Ca^2+ imaging. For each set of experiments we measured mCherry and GFP fluorescence to confirm that differences in the activity of the various STIM1 constructs were not due to differences in expression level (FIG. 14).

[2] = molecular target: T1, Orai1; assay: Store-operated Ca2+ entry by STIM1 variants, single cell Ca2+ imaging; type: cell-based; parameters: expressed in transfected cells; host or cells: HEK 293; details: coexpressed with eGFP-Orai1, TG
Experimental: For FIG. 7, cells were loaded as above with 2 μM fura-2/AM for 25 min. Ratiometric Ca2+ imaging was performed with 350 and 380 nm excitation in 2 mM Ca2+ Ringer's solution on an Axiovert 35 inverted microscope using a VideoProbe imaging system as described (Bautista et al., 2002). mCherry-positive cells were identified using a 540±12 nm excitation and a 580LP emission filter (Chroma).
The Role of CAD in Orai1 Binding and Activation by STIM1. A key question is whether CAD is responsible for the clustering and activation of CRAC channels by full-length STIM1 following store depletion. To address this, we measured the ability of mCherry-tagged STIM1 variants containing CAD mutations to co-cluster with eGFP-Orai1 and activate Ca^2+ entry in response to TG (FIG. 7). STIM1-Orai1 colocalization was quantified as the fraction of total STIM1 and Orai1 fluorescence that was recruited to regions of high fluorescence covariance (FIG. 13), while Ca^2+ influx was measured with single cell Ca^2+ imaging. For each set of experiments we measured mCherry and GFP fluorescence to confirm that differences in the activity of the various STIM1 constructs were not due to differences in expression level (FIG. 14).

[3] = molecular target: T1, Orai1; assay: Whole-cell patch clamp recording of ICRAC in transfected HEK 293 cells; type: cell-based; parameters: expressed in transfected cells; host or cells: HEK 293
Experimental: Electrophysiology. HEK 293 cells were transfected 8-24 h prior to electrophysiology experiments with STIM1- and Orai1-derived constructs in a 1:1 mass ratio using Lipofectamine 2000. […] ICRAC in cells cultured without LaCl3 was similar to that in cells cultured with LaCl3, but most cells without LaCl3 died soon after break-in.
Currents were recorded using standard whole-cell patch clamp techniques (Prakriya and Lewis, 2001). Pipettes of resistance 2-5 MΩ were filled with an internal solution containing (in mM) 150 Cs aspartate, 8 MgCl2, 10 EGTA, and 10 HEPES (pH 7.2 with CsOH). Currents were sampled at 5 kHz and filtered at 2 kHz, and all voltages were corrected for the junction potential of the pipette solution relative to Ringer's in the bath (−13 mV).
Patch-clamp Experiments. Pipette-membrane seals were formed in 2 mM Ca^2+ Ringer's solution. After break-in to the whole-cell configuration, voltage stimuli consisting of a 100-ms step to −100 mV followed by a 100-ms ramp from −100 to +100 mV were delivered every 5 s from the holding potential of +30 mV. After the currents reached a steady level (˜300 s for wild-type STIM1), the external solution was changed via a multibarrel local perfusion pipette to a high-Ca^2+ Ringer's containing (in mM) 130 NaCl, 4.5 KCl, 20 CaCl2, 1 MgCl2, 10 D-glucose, and 5 HEPES (pH 7.4 with NaOH). All data were leak-corrected using the current elicited in 20 mM Ca^2+ Ringer's+10 μM LaCl3 at the end of the each experiment. LaCl3 and 2-APB were added directly to parent solutions on the day of the experiment from 10 mM and 100 mM stocks in H2O and DMSO, respectively.
As a definitive test for CRAC channel activation, we conducted whole-cell patch clamp recordings from HEK 293 cells transiently transfected with myc-Orai1 and either YFP-STIM1 or YFP-CAD. In cells expressing full length YFP-STIM1, ICRAC appeared over several minutes following break-in, consistent with the typical slow activation seen in response to passive store depletion (FIG. 2D). […] In contrast, inward current was present from the moment of break-in in cells expressing YFP-CAD (FIG. 2E). This current was identified as ICRAC based on its dependence on extracellular Ca^2+, inward rectification, sequential enhancement and inhibition by 2-APB, and inhibition by La^3+ (FIG. 2E and FIG. 10 C, D). ICRAC was not observed at break-in in HEK 293 cells transfected with YFP or YFP-CAD in the absence of Orai1 (FIG. 2F), consistent with the low level of endogenous STIM1 and Orai1 in these cells. […] Inactivation was restored by addition of STIM1 residues carboxy-terminal to CAD.

[4] = molecular target: T1, Orai1; assay: Intracellular localization of YFP-CAD in HEK 293 cells; type: cell-based; parameters: expressed in transfected cells; host or cells: HEK 293; details: with myc-Orai1
Experimental: as §1
CAD Associates with Orai1 in vivo and in vitro. Because cytosolic CAD is a potent activator of Orai1 channels and is not associated with the ER, we hypothesized that CAD binds to Orai1. To test this idea, we first expressed YFP-CAD with or without myc-Orai1 in HEK 293 cells and examined its intracellular localization. […] GFP-myc-Orai1 was detected in the immunoprecipitates from cells co-expressing CAD and Orai1 but not from cells expressing CAD or Orai1 alone (FIG. 3B).

[5] = molecular target: T2, EE-Orai1-His8 (Homo sapiens, UniProt Q96D31); assay: GST pull-down assay with purified proteins; type: binding; details: in vitro
T2 construct: made in house; host or cells: Hi5 insect cells (baculovirus, pVL1393)
T2 sequence (Q96D31 whole entry): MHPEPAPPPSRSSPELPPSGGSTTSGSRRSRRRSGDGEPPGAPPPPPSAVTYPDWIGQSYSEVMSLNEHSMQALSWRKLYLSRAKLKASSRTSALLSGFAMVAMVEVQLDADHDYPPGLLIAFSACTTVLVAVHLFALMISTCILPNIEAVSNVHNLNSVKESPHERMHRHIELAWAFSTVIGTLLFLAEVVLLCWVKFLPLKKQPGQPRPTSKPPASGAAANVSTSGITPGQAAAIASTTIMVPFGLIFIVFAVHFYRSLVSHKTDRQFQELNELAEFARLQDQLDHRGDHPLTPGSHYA
Experimental: GST Pull-down Assays. For GST pull-down assays, either GST-CAD (0.16 μM) or GST (0.15 μM) was incubated with EE-Orai1-His8 (0.1 μM) for 1 h in buffer containing (in mM): 20 Tris-HCl (pH 8.0), 150 NaCl, 20 imidazole, and 1 DTT with protease inhibitors. After addition of glutathione sepharose the beads were centrifuged, washed with the above buffer, and the precipitated proteins were eluted with boiling SDS and analyzed by SDS-PAGE and Western blotting.
CAD Binds Directly to Orai1. To test for direct binding between the CAD and Orai1 we generated a GST-tagged CAD peptide in E. coli and an Orai1 protein containing C-terminal octa-histidine and N-terminal EEYMPME (“EE”) tags in insect Hi5 cells. We incubated purified GST-CAD or GST alone with purified EE-Orai1-His8 and used glutathione beads to precipitate the complexes.

[6] = tested on: Orai1; assay: Puncta formation of STIM1 variants by confocal microscopy in HEK 293 cells; type: cell-based; details: expressed alone in HEK 293 cells
Experimental: as §1
Quantitation of STIM1 and Orai1 Recruitment into Puncta. Colocalization of eGFP-Orai1 and mCh-STIM1 variants was analyzed from background-corrected confocal image pairs acquired before and after store depletion. Puncta have two defining characteristics: (1) because they are sites of accumulation, STIM1 and Orai1 fluorescence intensities in puncta are greater than the respective mean intensities measured across the entire cell, and (2) because STIM1 and Orai1 co-localize in puncta, their fluorescence covariance is high. […]

[7] = tested on: endogenous CRAC channels; assay: NFAT-luciferase assay in HEK 293T (NFAT-Luc) cells; type: cell-based; details: HEK 293T NFAT-luc cells transfected with STIM1 construct; PMA (1 μM) alone
Experimental: NFAT-luciferase Assays. HEK 293T cells were co-transfected with the indicated constructs and an NFAT reporter gene (firefly luciferase gene C-terminal to 4×-NFAT site from the IL-2 gene). Cotransfection with the Renilla luciferase (pRLTK) gene driven by the TK promoter was used to control for cell number and transfection efficiency. After 12-18 h, cells were treated with a control DMSO solution (mock), PMA (1 μM), or PMA plus TG (1 μM) for 8 h. Assays were performed using the Dual Luciferase Reporter assay system (Promega). For each condition, luciferase activity was measured with 4 samples taken from duplicate wells using a 96-well automated luminometer (Turner Biosystems). Results are represented as the ratio of firefly to Renilla luciferase activity.
Identifying a Minimal Cytosolic Region of STIM1 that Opens the CRAC Channel. To identify the CRAC-activating domain of STIM1, we first tested a series of soluble cytosolic STIM1 fragments for their ability to activate an NFAT-dependent luciferase reporter gene (NFAT-luc). A series of constructs were generated by progressive truncation of the full-length cytosolic region of STIM1 (FIG. 2A; STIM1234-685; CT-STIM1) and were transiently expressed in a HEK 293T cell line containing NFAT-luc. […]

[8] = molecular target: T3, CRAC channels (Homo sapiens, UniProt Q96D31); assay: [Ca2+]i imaging in HEK 293 cells expressing STIM1 fragment and Orai1; type: cell-based
T3 construct: expressed in transfected cells; host or cells: HEK 293
T3 sequence (Q96D31 whole entry, the tested form may be a part): as the sequence (Q96D31 whole entry) above
Experimental: Ca^2+ Imaging. For FIG. 2, cells were loaded at 37° C. in DMEM with 1 μM fura-2/AM for 30 min. Ratiometric Ca2+ imaging was performed at 340 and 380 nm in 2 mM Ca2+ Ringer's solution with a Nikon Eclipse 2000-U inverted microscope equipped with a fluorescent arc lamp, excitation filter wheel, and a Hamamatsu Orca CCD camera. Images were collected using Openlab (Improvision) and analyzed using Igor Pro.
To determine if CAD activates store operated Ca^2+ influx in cells, we measured [Ca^2+]i in HEK 293 cells expressing CAD and Orai1.

[9] = molecular target: T1, Orai1; assay: Co-immunoprecipitation with Orai1 in HEK 293T cells; type: binding; parameters: expressed in transfected cells; host or cells: HEK 293; details: 150 mM salt, 1% Triton X-100
Experimental: Immunoprecipitation and Immunoblot Analysis. Transfected HEK 293T cells (12-24 h) were washed with PBS and lysed in 50 mM Tris-HCl pH 7.5, 150 mM NaCl, 1% Triton X-100, and protease inhibitors. Lysates were spun at 12,000 rpm for 10 min, and the supernatant was incubated with anti-Flag M2 agarose beads (Sigma), or anti-myc or -HA antibody followed by IgG agarose beads (Pierce). Lysates and immunoprecipitates were subjected to SDS-PAGE, probed with HRP-conjugated secondary antibody and detected by enhanced chemiluminescence (Pierce).
CAD Associates with Orai1 in vivo and in vitro. Because cytosolic CAD is a potent activator of Orai1 channels and is not associated with the ER, we hypothesized that CAD binds to Orai1. To test this idea, we first expressed YFP-CAD with or without myc-Orai1 in HEK 293 cells and examined its intracellular localization. […] To provide additional evidence that CAD and Orai1 are part of the same protein complex we expressed Flag-tagged CAD and GFP-tagged Orai1 in HEK 293T cells and immunoprecipitated CAD with anti-Flag antibodies. GFP-myc-Orai1 was detected in the immunoprecipitates from cells co-expressing CAD and Orai1 but not from cells expressing CAD or Orai1 alone (FIG. 3B).
Thus, CAD and Orai1 form a protein complex in mammalian cells.

T1 sequence (Q96D31 whole entry): as above

Substance: STIM11-440: STIM1 1-448 with the final 8 aa deleted
puncta formation with Orai1 after store depletion [1]: retained the ability to form puncta and cluster Orai1 | Ca2+ entry (SOCE) after store depletion [2]: failed to activate SOCE

Substance: YFP-CAD: YFP-tagged CAD expressed in HEK 293 cells
constitutive ICRAC ([3]; HEK 293 cells cotransfected with construct and myc-Orai1, from break-in): constitutively active | localization on coexpression of Orai1 [4]: dramatic recruitment of YFP-CAD to the plasma membrane

Substance: CT-STIM1: full-length cytosolic region of STIM1 (aa 234-685) [reference compound]
activation of NFAT-dependent luciferase reporter gene (NFAT-luc) [7]: did not activate | resting [Ca2+]i ([8]; HEK 293T cells coexpressing construct and Orai1): did so | [Ca2+]i / CRAC channel activation ([8]; HEK 293 cells coexpressing construct and Orai1, no store depletion): did not elevate resting [Ca^2+]i | co-immunoprecipitation with Orai1 [9]: unable to detect any interaction

Continued, in another order:

co-precipitation of purified Orai1 with glutathione beads [5]: co-precipitated Orai1
Substance: GST-CAD: GST-tagged CAD peptide generated in E. coli

puncta formation with Orai1 after store depletion [1]: formed puncta with Orai1 | Ca2+ entry (SOCE) after store depletion [2]: activated Ca^2+ entry
Substance: STIM11-448: STIM1 truncated from the C-terminus to the end of the CAD

ICRAC after store depletion ([3]; HEK 293 cells coexpressing STIM1 variant and Orai1): activated ICRAC | puncta formation with Orai1 after store depletion [1]: colocalized in puncta
Substance: STIM1-DK: STIM1 lacking the polybasic C-terminal domain (aa 672-685)
puncta formation after store depletion [6]: failed to form puncta

puncta formation with Orai1 after store depletion [1]: formed pronounced puncta with Orai1 | Ca2+ entry (SOCE) after store depletion [2]: only marginally activated SOCE
Substance: STIM1 C437G: STIM1 C437G mutant
